Common to all, as to assay: ELISA; biotinylated P21 or P29 (2 ug/ml) on streptavidin-coated plates, PfCSP (2 ug/ml) coated on high-binding plates; 100 ul RATPIg supernatant, 1 h at room temperature; peroxidase goat anti-mouse IgG, OD450
What all share (details): one partner purified

Test [1] concerns the target T1, major repeat peptide P29 (NANPNANPNANPNAN) (Plasmodium falciparum, also: biotin, end not given here).
T1 construct: major repeat 15-mer peptide of PfCSP; Biotinylated, held on streptavidin-coated plates in the ELISA; Probably a synthetic peptide (surmise)
T1 chain: NANPNANPNANPNAN

Test [2] concerns the target T2, junctional peptide P21 (NPDPNANPNVDPNAN) (Plasmodium falciparum, also: biotin, end not given here).
T2 construct: junctional 15-mer peptide of PfCSP; Biotinylated, held on streptavidin-coated plates in the ELISA; Probably a synthetic peptide (surmise); also called peptide 21
T2 chain: NPDPNANPNVDPNAN

In test [3] the target is T3, Plasmodium falciparum circumsporozoite protein (PfCSP), full-length (Plasmodium falciparum, 3D7 (strain not …, UniProt Q7K740)).
T3 construct: Plasmodium falciparum circumsporozoite protein, called full-length; recombinant 'full-length' PfCSP may lack the signal peptide and the GPI anchor signal (surmise); also called flCSP

Where no end group is shown, it is not given here.

T3 sequence (Q7K740 19-374): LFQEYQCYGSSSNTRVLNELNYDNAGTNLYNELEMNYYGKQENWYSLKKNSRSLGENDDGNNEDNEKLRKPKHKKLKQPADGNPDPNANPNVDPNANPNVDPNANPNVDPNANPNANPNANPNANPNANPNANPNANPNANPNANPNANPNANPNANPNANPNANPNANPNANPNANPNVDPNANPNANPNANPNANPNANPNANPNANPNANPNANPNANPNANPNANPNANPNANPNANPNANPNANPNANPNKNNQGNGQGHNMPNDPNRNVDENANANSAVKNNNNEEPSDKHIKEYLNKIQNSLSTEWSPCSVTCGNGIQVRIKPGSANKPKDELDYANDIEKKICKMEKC

B1: one strong P29-binding antibody of R21-immunized mouse 5116 (antibody, V domains shown)
VH: QVQLQQSGAELARPGASVKLSCKASGYTFTSYAISWVKQRTGQGLEWIGEIYPRSGNIYYNEKFKGKATLTADKSSSTAYMELRSLTSEDSAVYFCARRGDVYFGGYWGQGTTLTVSS
VL: DIVMTQSHKFMSTSVGDRVIITCKASQDVGTAVVWYQQKPGQSPKLLIYWASTRHTGVPDRFTGSGSGTDFTLTISNVQSEDLADYFCQQYNSYPLTFGAGTKLELK
notes: Expressed IgG from a single sorted B cell; source: Expi293, transfected with RATP-Ig cassettes, in culture supernatant
As to B1, in test [1], the binding result is recorded as “binds”.

B2: P21/P29 double binder of mouse 5147 (PADRE-LuS-3T-immunized mouse) (antibody, V domains shown)
VH: DVQLQESGPGLVKPSQSLSLTCSVTGYSITSGYYWNWIRQFPGNKLEWMGYISYDGSNNYNPSLKNRISITRDTSKNQFFLKLNSVTTEDTATYYCARDDYDGFDYWGQGTTLTVSS
VL: DIQMTQSPSSLSASLGGKVTITCKASQDINKYIAWYQHKPGKGPRLLIHYTSTLQPGIPSRFSGSGSGRDYSFSISNLEPEDIATYYCLQYDNLWTFGGGTKLEIK
notes: as for B1
Regarding B2, the binding result in test [2] and in test [1] was “binds” in each case.

B3: one strong PfCSP-binding antibody of R21-immunized mouse 5116 (antibody, V domains shown)
VH: QIQLLQSGPELVKPGASVRISCKASGYTLTDHYINWVKQRPGQGLEWIGWIYPGSAEIKFNEKFKGKASLTVDTSSSTAYMQLSSLTSEDSAVYFCARSGYGGLDYWGQGSTLTVSS
VL: DLGMTQSHKFMSTSVGDRVTITCKASQDVGTAVAWYQQKPGQSPKLLIYWASTRHTGVPDRFTGSGSGTDFTLTITNVQSEDLADYFCQQFTIYPWTFGGGTKLEIK
notes: as for B1
As for B3, the binding result in test [3] is on record as “binds”.

The record behind these values is paper PMC13324253 (NPJ Vaccines, 2026).
